Laboratory results from PMC10397247.

Legend:
Assay in all cases: two-hybrid library CCmax;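 further: natural log of median RNA to DNA barcode read ratio; higher means stronger binding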
Conditions in all cases: mean of both orientations
4H2947-AA = target: T1, 4H2947-AA
T1 chain: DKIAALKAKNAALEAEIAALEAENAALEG

4H3915-AA = target: T2, 4H3915-AA
T2 chain: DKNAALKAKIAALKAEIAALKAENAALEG

P6-AA-12HGe-H = target: T3, P6-AA-12HGe-H
T3 chain: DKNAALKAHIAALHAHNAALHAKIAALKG

P6-AA-12HGe-K = target: T4, P6-AA-12HGe-K
T4 chain: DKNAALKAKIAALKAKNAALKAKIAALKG

P6-AA-12HGe-M = target: T5, P6-AA-12HGe-M
T5 chain: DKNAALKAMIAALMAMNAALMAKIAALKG

P6-AA-12HGe-S = target: T6, P6-AA-12HGe-S
T6 chain: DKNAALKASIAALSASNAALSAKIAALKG

P6-AA-1HAA-D = target: T7, P6-AA-1HAA-D
T7 chain: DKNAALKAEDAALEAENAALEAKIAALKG

P6-AA-1HAA-Y = target: T8, P6-AA-1HAA-Y
T8 chain: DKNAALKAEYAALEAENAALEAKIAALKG

P6-AA-1HGe-A = target: T9, P6-AA-1HGe-A
T9 chain: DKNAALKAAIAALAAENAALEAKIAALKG

P5-AA-1HAA-N = target: T10, P5-AA-1HAA-N
T10 chain: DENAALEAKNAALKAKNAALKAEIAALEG

4H2148-AA = target: T11, 4H2148-AA
T11 chain: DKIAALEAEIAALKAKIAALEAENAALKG

4H2290-AA = target: T12, 4H2290-AA
T12 chain: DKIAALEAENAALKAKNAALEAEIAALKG

4H733-AA = target: T13, 4H733-AA
T13 chain: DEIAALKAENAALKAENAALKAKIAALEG

APC4436-AA = target: T14, APC4436-AA
T14 chain: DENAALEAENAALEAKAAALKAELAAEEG

P6-AA-12HAA-E = target: T15, P6-AA-12HAA-E
T15 chain: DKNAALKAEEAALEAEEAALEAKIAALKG

4H1324-AA = target: T16, 4H1324-AA
T16 chain: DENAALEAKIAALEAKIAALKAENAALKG

Core_NNII-es_KKKK = target: T17, Core_NNII-es_KKKK
T17 chain: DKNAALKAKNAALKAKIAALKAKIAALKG

4H1985-AA = target: T18, 4H1985-AA
T18 chain: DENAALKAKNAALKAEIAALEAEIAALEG

4H2187-AA = target: T19, 4H2187-AA
T19 chain: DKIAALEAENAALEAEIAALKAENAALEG

4H2238-AA = target: T20, 4H2238-AA
T20 chain: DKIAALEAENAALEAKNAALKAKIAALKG

4H2512-AA = target: T21, 4H2512-AA
T21 chain: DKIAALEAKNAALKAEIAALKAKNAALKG

4H2985-AA = target: T22, 4H2985-AA
T22 chain: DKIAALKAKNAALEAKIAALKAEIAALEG

4H3605-AA = target: T23, 4H3605-AA
T23 chain: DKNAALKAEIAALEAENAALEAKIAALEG

4H3922-AA = target: T24, 4H3922-AA
T24 chain: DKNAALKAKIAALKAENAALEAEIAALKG

4H3940-AA = target: T25, 4H3940-AA
T25 chain: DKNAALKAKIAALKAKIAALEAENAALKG

4H662-AA = target: T26, 4H662-AA
T26 chain: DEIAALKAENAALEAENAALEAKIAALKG

4H87-AA = target: T27, 4H87-AA
T27 chain: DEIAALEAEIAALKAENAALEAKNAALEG

O2-AA = target: T28, O2-AA
T28 chain: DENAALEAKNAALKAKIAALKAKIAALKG

O8-AA = target: T29, O8-AA
T29 chain: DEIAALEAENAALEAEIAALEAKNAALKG

4H1391-AA = target: T30, 4H1391-AA
T30 chain: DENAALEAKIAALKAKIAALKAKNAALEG

4H2283-AA = target: T31, 4H2283-AA
T31 chain: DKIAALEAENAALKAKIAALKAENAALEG

4H2991-AA = target: T32, 4H2991-AA
T32 chain: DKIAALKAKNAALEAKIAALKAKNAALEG

4H3066-AA = target: T33, 4H3066-AA
T33 chain: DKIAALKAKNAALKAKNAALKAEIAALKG

4H3102-AA = target: T34, 4H3102-AA
T34 chain: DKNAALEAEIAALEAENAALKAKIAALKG

4H3920-AA = target: T35, 4H3920-AA
T35 chain: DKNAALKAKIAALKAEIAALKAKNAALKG

4H428-AA = target: T36, 4H428-AA
T36 chain: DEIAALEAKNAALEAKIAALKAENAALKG

4H971-AA = target: T37, 4H971-AA
T37 chain: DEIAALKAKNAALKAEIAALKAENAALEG

4H2219-AA = target: T38, 4H2219-AA
T38 chain: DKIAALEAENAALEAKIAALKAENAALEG

4H140-AA = target: T39, 4H140-AA
T39 chain: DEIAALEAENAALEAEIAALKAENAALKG

4H1802-AA = target: T40, 4H1802-AA
T40 chain: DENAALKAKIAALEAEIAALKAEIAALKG

4H2721-AA = target: T41, 4H2721-AA
T41 chain: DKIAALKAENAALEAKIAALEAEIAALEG

4H2750-AA = target: T42, 4H2750-AA
T42 chain: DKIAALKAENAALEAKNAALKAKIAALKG

B1: 4H249-AA (peptide)
chain: DEIAALEAENAALKAKNAALKAEIAALEG
interaction score (4H2947-AA): -1.55 | interaction score (4H3915-AA): -0.705

B2: 4H1401-AA (peptide)
chain: DENAALEAKIAALKAKNAALKAEIAALEG
interaction score (P6-AA-12HGe-H): -1.23 | interaction score (P6-AA-12HGe-K): -0.592 | interaction score (P6-AA-12HGe-M): 0.2 | interaction score (P6-AA-12HGe-S): -0.834 | interaction score (P6-AA-1HAA-D): 0.667 | interaction score (P6-AA-1HAA-Y): 2.37 | interaction score (P6-AA-1HGe-A): 2.14

B3: 4H3606-AA (peptide)
chain: DKNAALKAEIAALEAENAALEAKIAALKG
interaction score (P5-AA-1HAA-N): 1.72

B4: 4H1845-AA (peptide)
chain: DENAALKAKIAALEAKNAALEAKIAALEG
interaction score (4H2148-AA): -1.61 | interaction score (4H2290-AA): -1.92 | interaction score (4H733-AA): -1.33 | interaction score (APC4436-AA): -1.83

B5: 4H1385-AA (peptide)
chain: DENAALEAKIAALKAKIAALKAEIAALEG
interaction score (P6-AA-12HAA-E): 2.36

B6: 4H1153-AA (peptide)
chain: DENAALEAENAALEAEIAALEAEIAALEG
interaction score (4H1324-AA): -0.874 | interaction score (Core_NNII-es_KKKK): 1.83

B7: 4H1350-AA (peptide)
chain: DENAALEAKIAALKAEIAALEAKIAALKG
interaction score (4H1985-AA): 0.316 | interaction score (4H2187-AA): -1.97 | interaction score (4H2238-AA): -1.14 | interaction score (4H2512-AA): -0.538 | interaction score (4H2985-AA): 0.636 | interaction score (4H3605-AA): -0.433 | interaction score (4H3922-AA): -0.898 | interaction score (4H3940-AA): -0.283 | interaction score (4H662-AA): -1.35 | interaction score (4H87-AA): -0.16

B8: 4H171-AA (peptide)
chain: DEIAALEAENAALEAKIAALKAENAALEG
interaction score (O2-AA): -1.24 | interaction score (O8-AA): 0.645

B9: 4H1064-AA (peptide)
chain: DENAALEAEIAALEAKIAALEAKNAALKG
interaction score (4H1391-AA): 1.33 | interaction score (4H2283-AA): -1.69 | interaction score (4H2991-AA): -0.846 | interaction score (4H3066-AA): -1.4 | interaction score (4H3102-AA): -1.27 | interaction score (4H3920-AA): 1.13 | interaction score (4H428-AA): -1.04 | interaction score (4H971-AA): -1.08

B10: 4H1626-AA (peptide)
chain: DENAALKAEIAALKAENAALKAEIAALKG
interaction score (4H2219-AA): -1.54

B11: 4H1257-AA (peptide)
chain: DENAALEAENAALKAKIAALKAEIAALEG
interaction score (4H140-AA): -1.43 | interaction score (4H1802-AA): -1.38 | interaction score (4H2721-AA): 1.02 | interaction score (4H2750-AA): -1.22
